Laboratory results reported in patent publication US20030228309A1 (published 2003).

Experiments:
[1] = target: T1, Biotinylated TRAIL (AM100200-Peprotech) (Homo sapiens (Human), UniProt P50591 114-281, biotinylated (sites not given)); test: competition ELISA, soluble TR4 (TR4-Fc positive control) competes with plate-captured TR4-Fc for biotinylated TRAIL; assay 1
Procedure: (§1) Goat anti-human Fc was diluted to 0.1 micrograms/ml in coating buffer. The Immulon 4 microplate was coated with 100 microliters per well of the Goat anti-human Fc solution and incubated overnight at 4° C. The coating solution was decanted from the plate, and blocking solution was dispensed at 200 microliters per well. The plate was incubated at room temperature for 1 hour. After the 1 hour incubation period, the blocking solution was decanted from the plate and 1 microgram/mL of TR4-Fc was dispensed at 100 microliters/well and incubated for 2 hours at room temperature. After the incubation, the plate was washed five times manually using a Wheaton manifold.
(§2) Hybridoma supernatants were (previously) prepared in a low binding dilution plate using diluent. The supernatants were prepared in duplicate and were diluted from the stock concentration with 2.5 fold dilutions for the 7 subsequent wells. If a purified form of the antibody was available, the starting concentration was 5 micrograms/mL. The positive control (TR4-Fc) was diluted from 5 micrograms/mL. 100 microliters was transferred into the ELISA plate and pre-incubated for 30 minutes at room temperature. 20 microliters of biotinylated TRAIL was added at 5 micrograms/mL to the 100 gL of the supernatant and mixed. The combined 120 microliters incubated for 2 hours at RT. […]

[2] = target: T1, Biotinylated TRAIL (AM100200-Peprotech); test: competition ELISA, soluble TR4 (TR4-Fc positive control) competes with plate-captured TR4-Fc for biotinylated TRAIL; assay 2
Procedure: as §1, §2

T1 sequence (P50591 114-281 limits assumed): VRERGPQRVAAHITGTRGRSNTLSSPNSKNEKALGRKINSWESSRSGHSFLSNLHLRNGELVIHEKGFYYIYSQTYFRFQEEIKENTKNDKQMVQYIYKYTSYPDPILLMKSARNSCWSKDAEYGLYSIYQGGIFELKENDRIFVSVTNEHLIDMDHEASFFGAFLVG

B1: TR4-Fc fusion protein (Fc fusion)
chain: ATIKLHDQSIGTQQWEHSPLGELCPPGSHRSERPGACNRCTEGVGYTNASNNLFACLPCTACKSDEEERSPCTTTRNTACQCKPGTFRNDNSAEMCRKCSTGCPRGMVKVKDCTPWSDIECVHKESGNGHNI
notes: also called TR4 (in the form of Fc fusion protein); not shown: Fc region
IC50 [1]: 0.491 µg/mL
IC50 [2]: 0.284 µg/mL
